According to US20100261660A1 (published 2010):
Where a chain is given by its changes, count along the chain named.

B1: Round 2 CTLA4BP 5x3-e8 (ligand)
chain: VIHVTKEVKEVATLSCGHNVSVEELAQTRIYWQKEKKMVLTMMSGDMNIWPEYKNRTIFDITNNLSIVILALRPSDEGTYECVVLEYEKDAFKREHLAEVTLSVKADFPTPSISDFEIPTSNIRRIICSTSGGFPEPHLFWLENGEELNAINTTVSQDPETELYTVSSKLDFNMTANHSFVCLIKYGHLRVNQTFNWNTPKQEHFPDNLLPSWAITLISVNGIFVICCLTYCFAPGCRERRRNERLRRESVCPV
B2: Round 2 CTLA4BP-5x3-11b (ligand)
chain: VIHVTKEVKEVATLSCGHNVSVEELAQTRIYWQKEKKMVLTMMSGDMNIWPEYKNRTIFDITNNLSIVILALRSSDEGTYECVVLKYEKDAFKREHLAEVTLSVKADFPTPSITDFEIPPSNIRRIICSTSGGFPEPHLSWLENGEELNAISTTVSQDPETELYTVSSKLDFNMTTNRSFVCLIKYGHLRVNQTFNWNTPKQEHFPDNLLPSWAITLISVNGIFVICCLTYCFAPRCRERRSNERLRRESVRPV
B3: Round 2 CTLA4BP-5x2-4c (ligand)
chain: B1 chain with H18L, T101M, T120P, F140S, A150G, A176T, H178R, G236R, C252H
B4: Round 2 CTLA4BP-5x3-10e (ligand)
chain: B1 chain with T120P, T165A, A176T, V181M, V220A, G236R, R241K, R242S, C252H
B5: Round 2 CTLA4BP-5x2-8c (ligand)
chain: VIHMTKEVKEVATLSCGHNVSVEELAQTRIYWQKEKKMVLTMMSGDMNIWPEYKNRTIFDITNNLSIVILALRPSDEGTYECVVLKYEKDAFKQEHLAEVMLSVKADFPTPSITDFEIPPSNIRRIICSTSGGFPEPHLFWLENGEELNAINTTVSQDPETELYAVSSKLDFNMTTNHSFVCLIKYGHLRVNQTFNWNTPKQEHFPDNLLPSWAITLISANGIFVICCLTYCFAPRCRERRRNERLRRESVHPV
B6: Round 2 CTLA4BP-5x4-11d (ligand)
chain: B2 chain with H18L, Y31H, S74P, E88D, T114S, S152N, T176A, R178H, C232R, R241K
B7: Round 2 CTLA4BP-5X2-12F (ligand)
chain: B2 chain with Y31H, S74P, R124K, S152N, R178H, V181M, L209P, V220A, S242R, R245T
B8: Round 2 CTLA4BP-5x2-7b (ligand)
chain: B2 chain with Y31H, S74P, D107G, S152N, E160G, T176A, R178H, V220A, S242R
B9: Round 2 CTLA4BP 5x5-c10 (ligand)
chain: B5 chain with M4V, K86E, Q94R, M101T, N152S, V181M, P200T, A220V
B10: Round 2 CTLA4BP-5x4-1f (ligand)
chain: B1 chain with Y31H, E86K, T101M, A176T, V181M, G236R
B11: Round 2 CTLA4BP 5x5-h12 (ligand)
chain: B2 chain with E7K, Y31H, S74P, T101M, T114S, S152N, E160G, N177D, S242R, E244G
B12: Round 2 CTLA4BP 5x9-d10 (ligand)
chain: VIHVTKEVKEVATLSCGLNVSVEELAQTRIYWQKGKKMVLTMMSGDMNIWPEYKNRTIFDITNNLSIVILALRPSDEGTYECVVLEYEKDAFKREHLAEVMLSVKADFPTPSISDFEIPPSNIRRIICSTSGGFPEPHLSWLENGEELNAINTTASQDPGTELYTVSSKLDFNMTTNHSFMCLIKYGHLRVNQTFNWNTPKQEHFPDNLLPSWAITLISVNGIFVICCLTHCFAPRCRERRRNERLRRESARPV
B13: Round 2 CTLA4BP-5x4-12c (ligand)
chain: VIHVTKEVKEVATLSCGHNVSVEELAQTRIHWQKEKKMVLTMMSGDMNIWPEYKNRTIFDITNNLSIVILALRPSDEGTYECVVLKYEKDAFKREHLAEVMLSVKADFPTPSISDFEIPPSNIRRIICSTSGGFPEPHLFWLENGEELNAINTTVSQDPETELYTVSSKLDFNMTTNHSFMCLIKYGHLRVNQTFNWNTPKQEHFPDNLLPSWAITLISANGIFVICCLTYRFAPRCRERKSNETLRRESVRPV
notes: residues 1-34 left out as the signal peptide; also called CTLA-4BP 5×4-12c; clone R2 CTLA-4BP 5×4-12c
B14: Round 2 CTLA4BP-5x3-6f (ligand)
chain: B13 chain with H31Y, E35G, K86E, P120T, F140S, V155A, T230A, R232C, R236G, T245R
B15: Round 2 CTLA4BP-5x2-3c (ligand)
chain: B1 chain with K6R, Y31H, E86K, T101M, F140S, E162G, A176T, V181M, G236R
B16: Round 2 CTLA4BP 5x4-h1 (ligand)
chain: VIHVTKEVKEVATLSCGHNVSVEELAQTRIHWQKEKKMVLTMMSGDMNIWPEYKNRTIFDITNNLSIVILALRPSDEGTYECVVLKYEKDAFKRKHLAEVMLSVKADFPTPSISDFEIPTSNIRRIICSTSGGFPEPHLFWLENGEELNAINTTASQDPETELYTVSSKLDFNMTTNRSFVCLIKYGHLRVNQTFNWNTPKQEHFPNNLLPSWAITLISVNGIFVICCLTYCFAPRCRERRRNETLRRESVHPV
B17: Round 2 CTLA4BP 5x6-f6 (ligand)
chain: B5 chain with M4V, R29P, Q94R, A165T, H178R, C232R, H252C
B18: Round 2 CTLA4BP-5x2-2g (ligand)
chain: B13 chain with S114T, P120T, F140S, A220V, T245R
B19: Round 2 CTLA4BP 5x4-a1 (ligand)
chain: B2 chain with Y53H, S74P, P120T, S152N, E160G, S242R

Target: T1, Soluble CTLA-4-Ig (extracellular domain of human CTLA-4 fused to the Fc portion of human IgG1) (human, UniProt P16410 36-161, FITC-conjugated in the FACS binding assays)
T1 construct: extracellular domain; bought from R&D Systems; also called sCTLA-4-Ig; CTLA-4-Ig Fc; not shown: Fc portion of human IgG1
Assay: competitive FACS on transfected cells, FITC-sCTLA-4-Ig with biotin-sCD28-Ig; grade 0-2 of CTLA-4/CD28 ratio vs WT hB7-1

T1 sequence (P16410 36-161): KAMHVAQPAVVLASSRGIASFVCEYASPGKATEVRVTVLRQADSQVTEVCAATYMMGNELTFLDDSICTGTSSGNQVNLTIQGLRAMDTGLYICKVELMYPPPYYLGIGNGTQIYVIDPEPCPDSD

Binding Score	Binder
1	B1
1	B2
1	B3
2	B4
2	B5
2	B6
1	B7
1	B8
1	B9
2	B10
1	B11
1	B12
2	B13
2	B14
2	B15
2	B16
1	B17
2	B18
0	B19
